Source: US20240400630A1

Columns and labels:
[1] = molecular target: IL-15R on human PBMCs (NK cells, CD8+ T cells, CD4+ T cells) (human); experiment: cell-based or functional assay
[2] = molecular target: IL-2/IL-15 receptor on IL-2/IL-15-responsive HEK293 cells (human CD25 (IL-2Rα), CD122 (IL-2Rβ), CD132 (IL-2Rγ)) (human) (UniProt P01589); experiment: cell-based or functional assay
Chain of IL-2/IL-15 receptor on IL-2/IL-15-responsive HEK293 cells (human CD25 (IL-2Rα), CD122 (IL-2Rβ), CD132 (IL-2Rγ)) (human) (P01589 22-272, chain 1 of 3): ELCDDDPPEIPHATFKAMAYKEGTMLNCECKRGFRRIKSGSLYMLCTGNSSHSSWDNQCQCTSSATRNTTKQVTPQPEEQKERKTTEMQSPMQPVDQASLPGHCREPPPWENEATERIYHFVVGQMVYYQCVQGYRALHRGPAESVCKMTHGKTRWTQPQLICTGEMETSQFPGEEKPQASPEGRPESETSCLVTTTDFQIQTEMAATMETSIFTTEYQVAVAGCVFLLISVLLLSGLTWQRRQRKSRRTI
Chain of IL-2/IL-15 receptor on IL-2/IL-15-responsive HEK293 cells (human CD25 (IL-2Rα), CD122 (IL-2Rβ), CD132 (IL-2Rγ)) (human) (P14784 27-551, chain 2 of 3, further chain): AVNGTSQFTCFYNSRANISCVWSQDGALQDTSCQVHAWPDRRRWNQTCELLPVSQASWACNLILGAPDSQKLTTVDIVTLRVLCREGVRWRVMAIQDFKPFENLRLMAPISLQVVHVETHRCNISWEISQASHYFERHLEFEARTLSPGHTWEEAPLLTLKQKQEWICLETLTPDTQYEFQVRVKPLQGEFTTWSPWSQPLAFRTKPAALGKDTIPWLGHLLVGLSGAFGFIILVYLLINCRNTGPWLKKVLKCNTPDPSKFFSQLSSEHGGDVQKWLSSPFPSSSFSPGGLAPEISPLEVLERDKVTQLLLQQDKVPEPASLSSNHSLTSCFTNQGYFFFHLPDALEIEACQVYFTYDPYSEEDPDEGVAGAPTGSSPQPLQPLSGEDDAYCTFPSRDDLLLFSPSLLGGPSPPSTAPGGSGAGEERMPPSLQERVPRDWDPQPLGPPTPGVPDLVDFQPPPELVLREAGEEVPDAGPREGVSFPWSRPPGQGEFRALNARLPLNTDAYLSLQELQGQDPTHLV
Chain of IL-2/IL-15 receptor on IL-2/IL-15-responsive HEK293 cells (human CD25 (IL-2Rα), CD122 (IL-2Rβ), CD132 (IL-2Rγ)) (human) (P31785 23-369, chain 3 of 3, further chain): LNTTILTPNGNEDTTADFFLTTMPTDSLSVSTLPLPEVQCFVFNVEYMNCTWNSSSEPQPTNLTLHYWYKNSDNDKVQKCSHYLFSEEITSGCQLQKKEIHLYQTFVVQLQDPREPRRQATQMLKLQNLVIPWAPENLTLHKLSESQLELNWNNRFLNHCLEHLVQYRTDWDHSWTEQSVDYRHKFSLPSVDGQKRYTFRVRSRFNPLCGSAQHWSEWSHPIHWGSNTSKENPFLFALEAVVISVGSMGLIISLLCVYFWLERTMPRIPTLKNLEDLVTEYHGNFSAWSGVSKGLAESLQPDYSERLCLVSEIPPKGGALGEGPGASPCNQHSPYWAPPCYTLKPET

EC50: Human PBMC Proliferation Ki67, CD4 [1]: 121 pM
EC50: Human PBMC Proliferation Ki67, CD8 [1]: 221 pM
EC50: Human PBMC Proliferation Ki67, NK Cells [1]: 4 pM
EC50: Human PBMC STAT5 Phosphorylation, CD4 [1]: 6.97 pM
EC50: Human PBMC STAT5 Phosphorylation, CD8 [1]: 6.4 pM
EC50: Human PBMC STAT5 Phosphorylation, NK cells [1]: 1.79 pM
EC50: HEK-Blue Reporter Assay [2]: 1.48 pM
EC50: HEK-Blue Reporter Assay (average, n>3) [2]: 1.46 pM
Substance: PeproTech IL-15 (Recombinant human IL-15, available from PeproTech, Catalog #200-15) (from UniProt P40933 49-162) (ligand)
